Read-outs that look alike come from different tables or passages of the source.

In article PMC6650354 one finds critical concentration (Cr) of fibril growth and Kd data, which are given here for four substances.

Assay [1] has as its target AL-09 H87Y restorative mutant light chain variable domain protein (human) (UniProt P01594). Kind of assay: HPLC sedimentation assay.
For assay [2] the target is unchanged. Kind of assay: HPLC sedimentation assay. This is another data set of the same source.
Assay [3] concerns the target AL-12 R65S restorative mutant light chain variable domain protein (human) (UniProt P01594). Kind of assay: HPLC sedimentation assay.
Assay [4] has as its target immunoglobulin light chain κI O18/O8 variable domain (Homo sapiens) (UniProt P01594). Conditions: cited from earlier work.
For assay [5], the target named is κI O18/O8 germline (control) light chain variable domain protein (human) (UniProt P01594). The experiment in a line: HPLC sedimentation assay.
For assay [6] the target is unchanged. The experiment in a line: HPLC sedimentation assay. The source holds these as a separate data set.

In the case of “AL-09 H87Y restorative mutant light chain variable domain protein (from UniProt P01594 23-117) (domain or fragment)”, the critical concentration (Cr) of fibril growth turned out to be 2.4 µM in assay [1] and 2.8 µM in assay [2].
“AL-12 R65S restorative mutant light chain variable domain protein (from UniProt P01594 23-111) (domain or fragment)” showed a critical concentration (Cr) of fibril growth in assay [3] of 3.4 µM.
For orientation: Kd means the constant that tells how readily two partners part at equilibrium. Regarding “immunoglobulin light chain κI O18/O8 variable domain (from UniProt P01594)”, the equilibrium dissociation constant (Kd) in assay [4] was 217 µM.
On to “κI O18/O8 germline (control) light chain variable domain protein (from UniProt P01594 23-117) (domain or fragment)”, for which the figures for the critical concentration (Cr) of fibril growth in assay [5] and in assay [6] were 1.2 µM and 3.2 µM, respectively.
